Source: patent US20220073618A1 (NANJING GENSCRIPT BIOTECH, published 2022)
Changes are numbered by the printed parent chain.

B1: Chimeric antibody (antibody, V domains shown)
VH: DVQLQESGPDLVKPSQSLSLTCTVTGYSITSGYTWHWIRQFPGNKLEWMGYIHYSGSTKYNPSLKSRFSITRDTSKNQFFLQLNSMTAEDTATYYCARNSLFASWGHGTLVTVSA
VL: DIVLTQSPASLAVSLGQRATISCRASESVDTYGDSFMHWFQQKPGQPPKLLIYRASNLESGIPARFSGSGSRTDFTLTINPVEADDVATYYCQQSNEAPYTFGGGTKLEIK
notes: also called mPD-L1Ab-Chim
B2: Chimeric antibody (as ranked in Table 2) (Fab, V domains shown)
VH: B1 VH
VL: B1 VL
B3: AH01947 (antibody, human IgG1, V domains shown)
VH: QVQLQESGPGLVKPSQTLSLTCTVSGYSITSGYTWHWIRQHPGKGLEWIGYIHYSGSTKYNPSLKSRVTISVDTSKNQFSLKLSSVTAADTAVYYCARNSLFASWGQGTLVTVSS
VL: DIVLTQSPDSLAVSLGERATINCRASESVDTYGDSFMHWFQQKPGQPPKLLIYRASNLESGVPDRFSGSGSGTDFTLTISSLQAEDVAVYYCQQSNEAPYTFGGGTKLEIK
notes: also called mPD-L1Ab-CBM clone AH01947
B4: AH01964 (prokaryotically expressed antibody product) (Fab, V domains shown)
VH: B3 VH with V72R
VL: DIVMTQSPDSLAVSLGERATINCRASESVDTYGDSFMHWYQQKPGQPPKLLIYRASNLESGVPDRFSGSGSGTDFTLTISSLQAEDVAVYYCQQSNEAPYTFGGGTKL
B5: AH01964 (antibody, human IgG1, V domains shown)
VH: B3 VH with V72R
VL: B4 VL
notes: also called mPD-L1Ab-CBM clone AH01964
B6: AH01950 (prokaryotically expressed antibody product) (Fab, V domains shown)
VH: B3 VH with V72R
VL: B3 VL
B7: AH01947 (prokaryotically expressed antibody product) (Fab, V domains shown)
VH: B3 VH
VL: B3 VL
B8: AH02030 (prokaryotically expressed antibody product) (Fab, V domains shown)
VH: B3 VH with S25T, V68F, S71T, V72R
VL: B3 VL with F40Y, G72R
B9: AH02033 (prokaryotically expressed antibody product) (Fab, V domains shown)
VH: B3 VH with S25T, I49M, V68F, V72R
VL: B3 VL with V62I
B10: AH02033 (antibody, human IgG1, V domains shown)
VH: B3 VH with S25T, I49M, V68F, V72R
VL: B3 VL with V62I
notes: also called mPD-L1Ab-5BM clone AH02033
B11: AH02030 (antibody, human IgG1, V domains shown)
VH: B3 VH with S25T, V68F, S71T, V72R
VL: B3 VL with F40Y, G72R
notes: also called mPD-L1Ab-5BM clone AH02030
B12: AH02029 (prokaryotically expressed antibody product) (Fab, V domains shown)
VH: B3 VH with S25T, T69S, V72R
VL: B3 VL with F40Y
B13: AH01946 (prokaryotically expressed antibody product) (Fab, V domains shown)
VH: B3 VH with V72R, V86M
VL: B3 VL with L82V
B14: AH01963 (prokaryotically expressed antibody product) (Fab, V domains shown)
VH: B3 VH with V72R
VL: B3 VL with F40Y, L82V

How the values were obtained:
human PD-L1 protein [1] = target: T1, human PD-L1 protein (human, UniProt Q9NZQ7 19-238, limits assumed); test: ELISA on human PD-L1 protein; control antibody stored at -80 C
T1 sequence (Q9NZQ7 19-238 limits assumed): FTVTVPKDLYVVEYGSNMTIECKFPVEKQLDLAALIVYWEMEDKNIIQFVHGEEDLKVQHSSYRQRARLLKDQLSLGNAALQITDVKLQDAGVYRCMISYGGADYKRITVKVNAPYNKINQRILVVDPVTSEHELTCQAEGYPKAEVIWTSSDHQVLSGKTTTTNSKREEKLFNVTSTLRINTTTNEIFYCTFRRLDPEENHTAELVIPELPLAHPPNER
Method: (§1) The antibody samples were treated for 20 min at various temperature gradients respectively, and then centrifuged to remove the pellet. Then the amount of remaining antibody was evaluated by ELISA. (The temperature gradient includes: room temperature, 30° C., 40° C., 50° C., 60° C., 70° C., […]) (FIG. 4)

[2] = target: T2, PD-L1-HIS recombinant protein (human, UniProt Q9NZQ7 19-238, limits assumed); test: SPR (Biacore 8K), antibody captured on chip, PD-L1-HIS analyte 2.5-80 nM, 1:1 binding model
T2 construct: not shown: His tag
T2 sequence (Q9NZQ7 19-238 limits assumed): as above
Method: The chip surface was equilibrated with HBS-EP buffer at a flow rate of 10 μl/min for 5 min, and then a 1:1 mixture of “NHS+EDC” was injected at a flow rate of 10 μl/min for 420 sec to activate the chip. The capture antibody (goat anti-murine IgG) diluted in 10 mM sodium acetate buffer was injected for about 420 sec at a flow rate of 10 μl/min for coupling, and finally ethanolamine was injected for 420 sec at a flow rate of 10 μl/min to block the surface.
Three pre-cycles were performed with the HBS-EP buffer as a sample to balance the chip to stabilize the baseline. The antibody diluted in HBS-EP buffer was injected for 30 sec at a flow rate of 10 μl/min (where the antibody-antigen binding signal was controlled to about 100 RU by adjusting the capture time between 0-5 min), and then the chip was equilibrated with the buffer for 1 min. The low-concentration antigen 2.5 nM PD-L1-HIS was injected at a flow rate of 30 μl/min for 240/300 seconds, to allow the antigen to bind to the antibody, and then the buffer was injected at a flow rate of 30 μl/min for 720/600 seconds for dissociation. 50 mM HCl were injected three times each for 15 s at a flow rate of 100 μl/min for regeneration, to complete one cycle. The antigen concentration was changed (such as 5 nM PD-L1-HIS) to carry out the cycle for measurement at a next gradient concentration until all gradient concentrations (2.5 nM, 5 nM, 10 nM, 20 nM, 40 nM, 80 nM PD-L1-HIS) and the replicate (such as 10 nM PD-L1-HIS) were tested.
The experimental data was double subtracted (minus the background values of the control channel and zero concentration), and fitted to the “1:1 binding” model in the Biacore 8K evaluation software. Biacore 8K was used to determine the affinity of the antibody to the PD-L1-HIS recombinant protein.

human PD-L1 protein [3] = target: T1, human PD-L1 protein; test: ELISA on human PD-L1 protein; antibody kept at 40 C for 0 (D0), 7 (D7) or 14 (D14) days
Method: The antibody samples were treated separately at 40° C., and then centrifuged to remove the pellet. Then the amount of remaining antibody was evaluated by ELISA. (test after treatment at 40° C. for 7 days (D7) and 14 days (D14) separately; for each test, the untreated sample (D0) stored at −80° C. is used as a control) (FIG. 3)

human PD-L1 protein [4] = target: T1, human PD-L1 protein; test: ELISA on human PD-L1 protein; antibody treated for 20 min (overlapping curves, room temperature to 60 C by the legend, not told apart)
Method: as §1

PD-L1/Fc [5] = target: T3, PD-L1/Fc (UniProt Q9NZQ7 19-238, limits assumed); test: SPR (Biacore 8K), antibody as ligand, PD-L1/Fc as analyte, 1:1 binding model
T3 construct: not shown: Fc part
T3 sequence (Q9NZQ7 19-238 limits assumed): as above

PD-L1/Fc [6] = target: T3, PD-L1/Fc; test: SPR (Biacore 8K), prokaryotically expressed antibody as ligand, PD-L1/Fc as analyte, 1:1 binding model

Binder | Kd [2] | koff [2] | kon [2] | Kd (PD-L1/Fc [6]) | koff (PD-L1/Fc [6]) | kon (PD-L1/Fc [6]) | further results
B1 | 1270 pM | 0.000219 s⁻¹ | 172000 M⁻¹ s⁻¹ |  |  |  | EC50 (read off the curve) (human PD-L1 protein [1]): ~10 ng/mL; EC50 (read off the curve) (human PD-L1 protein [3]): ~10 ng/mL; EC50 (read off the curve) (human PD-L1 protein [4]): ~8 ng/mL
B2 |  |  |  |  |  |  | Kd (PD-L1/Fc [5]): 58 pM; koff (PD-L1/Fc [5]): 2.03e-05 s⁻¹; kon (PD-L1/Fc [5]): 349000 M⁻¹ s⁻¹
B3 | 3110 pM | 0.000714 s⁻¹ | 230000 M⁻¹ s⁻¹ |  |  |  | 
B4 |  |  |  | 46.8 pM | 2.48e-05 s⁻¹ | 530000 M⁻¹ s⁻¹ | 
B5 | 1760 pM | 0.00037 s⁻¹ | 210000 M⁻¹ s⁻¹ |  |  |  | 
B6 |  |  |  | 36.7 pM | 1.9e-05 s⁻¹ | 518000 M⁻¹ s⁻¹ | 
B7 |  |  |  | 82.2 pM | 4.38e-05 s⁻¹ | 533000 M⁻¹ s⁻¹ | 
B8 |  |  |  | 43.9 pM | 1.58e-05 s⁻¹ | 359000 M⁻¹ s⁻¹ | 
B9 |  |  |  | 0.0676 pM | 2.71e-08 s⁻¹ | 401000 M⁻¹ s⁻¹ | 
B10 | 903 pM | 0.000166 s⁻¹ | 184000 M⁻¹ s⁻¹ |  |  |  | 
B11 | 1170 pM | 0.000216 s⁻¹ | 185000 M⁻¹ s⁻¹ |  |  |  | 
B12 |  |  |  | 56.8 pM | 1.93e-05 s⁻¹ | 339000 M⁻¹ s⁻¹ | 
B13 |  |  |  | 9.4 pM | 4.72e-06 s⁻¹ | 502000 M⁻¹ s⁻¹ | 
B14 |  |  |  | 34.4 pM | 1.63e-05 s⁻¹ | 474000 M⁻¹ s⁻¹ | 
